Our source for the stoichiometry N values is PMC2114603.

This experiment concerns the target lymphoma 4.1-like protein (68/65-kD phosphoprotein doublet) of mouse T-lymphoma cells (mouse (endogenous in BW 5147)). Description: co-sedimentation. As to conditions: scale: gp 25 per 68/65-kD protein.

lymphoma 4.1-like protein (68/65-kD phosphoprotein doublet) of mouse T-lymphoma cells (mouse (endogenous in BW 5147)), sequence (P48193 whole entry): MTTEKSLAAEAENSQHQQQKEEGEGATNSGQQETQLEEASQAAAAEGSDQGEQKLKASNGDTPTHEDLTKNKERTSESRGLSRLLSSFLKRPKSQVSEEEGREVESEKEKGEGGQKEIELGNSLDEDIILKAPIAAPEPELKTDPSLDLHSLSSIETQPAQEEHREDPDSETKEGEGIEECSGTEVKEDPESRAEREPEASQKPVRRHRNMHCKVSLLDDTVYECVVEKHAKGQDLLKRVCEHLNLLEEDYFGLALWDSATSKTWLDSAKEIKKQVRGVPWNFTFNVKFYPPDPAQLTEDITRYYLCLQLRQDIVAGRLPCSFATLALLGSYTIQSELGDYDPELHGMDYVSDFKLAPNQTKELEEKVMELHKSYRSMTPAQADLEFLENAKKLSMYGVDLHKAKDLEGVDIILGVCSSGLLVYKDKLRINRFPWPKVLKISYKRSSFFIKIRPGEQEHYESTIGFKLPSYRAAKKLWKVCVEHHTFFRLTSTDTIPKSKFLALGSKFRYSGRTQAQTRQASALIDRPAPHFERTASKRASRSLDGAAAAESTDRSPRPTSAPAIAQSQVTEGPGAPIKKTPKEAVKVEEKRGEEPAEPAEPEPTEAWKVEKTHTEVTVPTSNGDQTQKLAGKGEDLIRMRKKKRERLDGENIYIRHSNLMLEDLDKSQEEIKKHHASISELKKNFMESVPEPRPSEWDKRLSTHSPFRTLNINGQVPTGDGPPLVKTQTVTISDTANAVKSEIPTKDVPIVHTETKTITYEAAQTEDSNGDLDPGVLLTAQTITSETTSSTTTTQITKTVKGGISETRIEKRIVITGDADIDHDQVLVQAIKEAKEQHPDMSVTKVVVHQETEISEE

B1: Thy-1 glycoprotein (gp 25) of mouse T-lymphoma cells (natural protein)
chain: QKVTSLTACLVNQNLRLDCRHENNTKDNSIQHEFSLTREKRKHVLSGTLGIPEHTYRSRVTLSNQPYIKVLTLANFTTKDEGDYFCELQVSGANPMSSNKSISVYRDKLVKC
modifications: glycoprotein ([3H]glucosamine-labelled); 125I-labelled or unlabelled
Turning to B1, the stoichiometry N (usually a count of units in the complex or per binding partner) worked out at 4.
